These results are taken from patent US20100137566A1.

Assay [1] deals with GST-karyopherin α (karyopherin α expressed as a fusion protein with glutathione S-transferase), immobilized on glutathione Sepharose beads. As to the kind of experiment: pull-down on GST-karyopherin α beads, PCR; against untreated extract.
Assay [2] shares this target. As to the kind of experiment: pull-down on GST-karyopherin α beads, PCR, Phosphorimager; against untreated lysate.
Assay [3] shares this target. In words: pull-down on GST-karyopherin α beads, PCR.

In the case of “HIV-1NLHX pre-integration complexes that lack Vpr (MA NLS+ Vpr-)”, the percent reduction of binding in the presence of 1 µM CNI-H0294 (small molecule) in assay [1] was found to be 95%. Consider HIV-1RF pre-integration complexes, for which, in assay [2], the fold reduction of binding in the presence of 0.1 µM CNI-H0294 (small molecule) is 8 fold and the fold reduction of binding in the presence of 1 µM CNI-H0294 (small molecule) is 25 fold. Take “wild-type HIV-1NLHX pre-integration complexes”: the percent reduction of binding in the presence of 1 µM CNI-H0294 (small molecule) in assay [1] came to 95%.

In the case of “HIV-1NLHX pre-integration complexes with mutated MA NLS (MA NLS- Vpr+)”, the binding as percent of that of MA NLS+ complexes (% of MA NLS+ complexes) in assay [3] is 1 to 5.
